The results in this text go back to article PMC9576935, “MiR-585-5p impedes gastric cancer proliferation and metastasis by orchestrating the interactions among CREB1, MAPK1 and MITF”.

The target in this data set is CREB1 (recombinant, Ni-affinity purified) (UniProt P16220 1-327). Put plainly: EMSA; LightShift EMSA kit: 2 ul 5x binding buffer, 6 ul CREB1, 1 ul probe, 25 C, 20 min; salt and pH not stated. To be noted: protein: recombinant; (Ni-chelating purification); chain copies: 2; label: 5' 6-FAM (FITC) on forward strand (Methods); blunt. In general terms: A gel shift assay detects complexes by their altered migration in electrophoresis.
CREB1 (recombinant, Ni-affinity purified), sequence (P16220 whole entry): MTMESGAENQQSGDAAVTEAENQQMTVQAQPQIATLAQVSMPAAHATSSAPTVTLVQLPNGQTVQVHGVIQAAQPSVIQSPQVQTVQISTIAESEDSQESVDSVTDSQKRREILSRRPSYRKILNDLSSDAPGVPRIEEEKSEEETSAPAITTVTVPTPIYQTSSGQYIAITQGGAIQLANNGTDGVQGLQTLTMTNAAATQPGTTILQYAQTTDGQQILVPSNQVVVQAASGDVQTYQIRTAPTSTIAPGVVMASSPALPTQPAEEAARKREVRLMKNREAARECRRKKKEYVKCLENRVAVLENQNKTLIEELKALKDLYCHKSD

B1: MITF-wt probe (dsDNA)
DNA 1: TGGATGTCTTTTCTGATGTGAAATTAAA
DNA 2: TTTAATTTCACATCAGAAAAGACATCCA
As for B1, the binding result is given as “binds”.
